Data on 90 variants can be found in IntAct's records for PubMed 29039417.

B1: BBSome complex member BBS2 (Homo sapiens), Q9BXC9 (parent)
chain: MLLPVFTLKLRHKISPRMVAIGRYDGTHPCLAAATQTGKVFIHNPHTRNQHVSASRVFQSPLESDVSLLSINQAVSCLTAGVLNPELGYDALLVGTQTNLLAYDVYNNSDLFYREVADGANAIVLGTLGDISSPLAIIGGNCALQGFNHEGSDLFWTVTGDNVNSLALCDFDGDGKKELLVGSEDFDIRVFKEDEIVAEMTETEIVTSLCPMYGSRFGYALSNGTVGVYDKTSRYWRIKSKNHAMSIHAFDLNSDGVNELITGWSNGKVDARSDRTGEVIFKDNFSSAIAGVVEGDYRMDGHIQLICCSVDGEIRGYLPGTAEMRGNLMDTSAEQDLIRELSQKKQNLLLELRNYEENAKAELASPLNEADGHRGIIPANTRLHTTLSVSLGNETQTAHTELRISTSNDTIIRAVLIFAEGIFTGESHVVHPSIHNLSSSICIPIVPPKDVPVDLHLKAFVGYRSSTQFHVFESTRQLPRFSMYALTSLDPASEPISYVNFTIAERAQRVVVWLGQNFLLPEDTHIQNAPFQVCFTSLRNGGHLHIKIKLSGEITINTDDIDLAGDIIQSMASFFAIEDLQVEADFPVYFEELRKVLVKVDEYHSVHQKLSADMADHSNLIRSLLVGAEDARLMRDMKTMKSRYMELYDLNRDLLNGYKIRCNNHTELLGNLKAVNQAIQRAGRLRVGKPKNQVITACRDAIRSNNINTLFKIMRVGTASS
partner: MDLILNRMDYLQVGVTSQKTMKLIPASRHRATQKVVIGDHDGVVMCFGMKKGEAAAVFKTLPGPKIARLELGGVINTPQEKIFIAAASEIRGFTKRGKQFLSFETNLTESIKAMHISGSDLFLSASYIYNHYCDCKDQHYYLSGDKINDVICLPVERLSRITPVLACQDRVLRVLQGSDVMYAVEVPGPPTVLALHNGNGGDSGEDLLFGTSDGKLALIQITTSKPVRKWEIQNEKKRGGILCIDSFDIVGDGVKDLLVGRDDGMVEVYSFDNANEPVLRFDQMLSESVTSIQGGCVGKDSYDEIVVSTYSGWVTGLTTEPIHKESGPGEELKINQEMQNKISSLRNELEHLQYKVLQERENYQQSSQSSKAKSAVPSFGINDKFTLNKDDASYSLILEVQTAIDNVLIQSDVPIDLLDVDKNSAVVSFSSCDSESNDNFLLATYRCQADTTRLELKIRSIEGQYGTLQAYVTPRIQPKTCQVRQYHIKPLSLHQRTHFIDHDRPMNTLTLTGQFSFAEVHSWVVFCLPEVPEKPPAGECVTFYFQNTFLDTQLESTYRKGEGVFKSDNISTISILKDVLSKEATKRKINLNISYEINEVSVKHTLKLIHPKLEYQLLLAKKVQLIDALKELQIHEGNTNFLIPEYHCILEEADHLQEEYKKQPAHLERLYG

The experiment covers variants of B1. The note with it: with BBS7, Q8IWZ6-2.
Regarding N692K, the “effect of a mutation on the interaction” value is on record as “with no effect”.

On to N692E, for which the “effect of a mutation on the interaction” value is “with no effect”.

For N692A, the “effect of a mutation on the interaction” value is reported as “with no effect”.

For F711E, the “effect of a mutation on the interaction” value is recorded as “with no effect”.

In the case of F711K, the “effect of a mutation on the interaction” value is “with no effect”.

Regarding F711A, the “effect of a mutation on the interaction” value is on record as “with no effect”.

Take R681A: the “effect of a mutation on the interaction” value was “with no effect”.

On to R681E, for which the “effect of a mutation on the interaction” value was “with no effect”.

For the variant R681K, the “effect of a mutation on the interaction” value is “with no effect”.

For N664K, the “effect of a mutation on the interaction” value is reported as “with no effect”.

As for N664A, the “effect of a mutation on the interaction” value is “with no effect”.

Consider N664E, for which the “effect of a mutation on the interaction” value is “with no effect”.

As for R703A, the “effect of a mutation on the interaction” value is recorded as “with no effect”.

For R703K, the “effect of a mutation on the interaction” value is “with no effect”.

Turning to R703E, the “effect of a mutation on the interaction” value is reported as “with no effect”.

Take A701K: the “effect of a mutation on the interaction” value is given as “with no effect”.

With A701E, the “effect of a mutation on the interaction” value is “with no effect”.

G670K: the “effect of a mutation on the interaction” value is given as “with no effect”.

On to G670C, for which the “effect of a mutation on the interaction” value is “disrupting interaction strength”.

G670A: the “effect of a mutation on the interaction” value is on record as “with no effect”.

For G670E, the “effect of a mutation on the interaction” value is reported as “with no effect”.

As to D653E, the “effect of a mutation on the interaction” value was “with no effect”.

Regarding D653K, the “effect of a mutation on the interaction” value is given as “with no effect”.

With D653A, the “effect of a mutation on the interaction” value is listed as “with no effect”.

Turning to C698A, the “effect of a mutation on the interaction” value is listed as “with no effect”.

As for C698K, the “effect of a mutation on the interaction” value is “with no effect”.

On to C698E, for which the “effect of a mutation on the interaction” value is reported as “with no effect”.

In the case of G683E, the “effect of a mutation on the interaction” value is “with no effect”.

On to G683A, for which the “effect of a mutation on the interaction” value is listed as “with no effect”.

As to G683K, the “effect of a mutation on the interaction” value is “with no effect”.

Regarding M714A, the “effect of a mutation on the interaction” value was “with no effect”.

In the case of G657K, the “effect of a mutation on the interaction” value was “with no effect”.

For the variant G657A, the “effect of a mutation on the interaction” value is recorded as “with no effect”.

In the case of G657E, the “effect of a mutation on the interaction” value was “with no effect”.

For L672A, the “effect of a mutation on the interaction” value is recorded as “with no effect”.

On to L672K, for which the “effect of a mutation on the interaction” value is on record as “with no effect”.

Turning to L672E, the “effect of a mutation on the interaction” value is listed as “with no effect”.

L710E: the “effect of a mutation on the interaction” value was “with no effect”.

For the variant L710K, the “effect of a mutation on the interaction” value was “with no effect”.

With L710A, the “effect of a mutation on the interaction” value is “with no effect”.

N656A: the “effect of a mutation on the interaction” value is given as “with no effect”.

Consider N656E, for which the “effect of a mutation on the interaction” value is “with no effect”.

With N656K, the “effect of a mutation on the interaction” value is given as “with no effect”.

As to I679A, the “effect of a mutation on the interaction” value is “disrupting interaction strength”.

As to I679E, the “effect of a mutation on the interaction” value is on record as “disrupting interaction strength”.

Turning to I679L, the “effect of a mutation on the interaction” value is reported as “disrupting interaction strength”.

On to I679K, for which the “effect of a mutation on the interaction” value is on record as “disrupting interaction strength”.

Turning to T696K, the “effect of a mutation on the interaction” value was “with no effect”.

For T696A, the “effect of a mutation on the interaction” value was “with no effect”.

Consider T696E, for which the “effect of a mutation on the interaction” value is recorded as “with no effect”.

Turning to I713K, the “effect of a mutation on the interaction” value is listed as “with no effect”.

On to I713E, for which the “effect of a mutation on the interaction” value was “with no effect”.

As to I713A, the “effect of a mutation on the interaction” value is “with no effect”.

R699E: the “effect of a mutation on the interaction” value is listed as “with no effect”.

As to R699A, the “effect of a mutation on the interaction” value is listed as “with no effect”.

In the case of R699K, the “effect of a mutation on the interaction” value was “with no effect”.

With K689A, the “effect of a mutation on the interaction” value was “with no effect”.

On to K689E, for which the “effect of a mutation on the interaction” value is on record as “with no effect”.

As for A674E, the “effect of a mutation on the interaction” value is recorded as “with no effect”.

In the case of A674K, the “effect of a mutation on the interaction” value is “with no effect”.

For N663K, the “effect of a mutation on the interaction” value was “with no effect”.

Take N663A: the “effect of a mutation on the interaction” value is “with no effect”.

For the variant N663E, the “effect of a mutation on the interaction” value is on record as “with no effect”.

For the variant I702E, the “effect of a mutation on the interaction” value is on record as “with no effect”.

Consider I702A, for which the “effect of a mutation on the interaction” value was “with no effect”.

With I702K, the “effect of a mutation on the interaction” value was “with no effect”.

Take R686E: the “effect of a mutation on the interaction” value was “disrupting interaction strength”.

Regarding R686K, the “effect of a mutation on the interaction” value is “with no effect”.

R686A: the “effect of a mutation on the interaction” value is given as “disrupting interaction strength”.

Regarding T666K, the “effect of a mutation on the interaction” value was “with no effect”.

Consider T666E, for which the “effect of a mutation on the interaction” value is on record as “with no effect”.

As to T666A, the “effect of a mutation on the interaction” value is “with no effect”.

As for A678E, the “effect of a mutation on the interaction” value is on record as “with no effect”.

On to A678K, for which the “effect of a mutation on the interaction” value is “with no effect”.

For K691E, the “effect of a mutation on the interaction” value is given as “with no effect”.

Consider K691A, for which the “effect of a mutation on the interaction” value is listed as “with no effect”.

In the case of V694E, the “effect of a mutation on the interaction” value was “with no effect”.

For V694K, the “effect of a mutation on the interaction” value is recorded as “with no effect”.

In the case of V694A, the “effect of a mutation on the interaction” value was “with no effect”.

For the variant N705E, the “effect of a mutation on the interaction” value was “with no effect”.

Consider N705A, for which the “effect of a mutation on the interaction” value is on record as “with no effect”.

Regarding N705K, the “effect of a mutation on the interaction” value was “with no effect”.

Regarding S704A, the “effect of a mutation on the interaction” value is recorded as “with no effect”.

Regarding S704K, the “effect of a mutation on the interaction” value is “with no effect”.

S704E: the “effect of a mutation on the interaction” value is recorded as “with no effect”.

With Q680K, the “effect of a mutation on the interaction” value is reported as “with no effect”.

With Q680A, the “effect of a mutation on the interaction” value was “with no effect”.

Take Q680E: the “effect of a mutation on the interaction” value is “with no effect”.

Turning to I707A, the “effect of a mutation on the interaction” value is recorded as “with no effect”.

As for I707K, the “effect of a mutation on the interaction” value is “with no effect”.
